Laboratory results published in the supplement of paper PMC7877785.
± gives the uncertainty stated by the source.

Test: self-splicing fitness, log relative to wild type (ln ratio); higher = more splicing; Tetrahymena group I intron in knt gene, E. coli kanamycin selection, DiMSum; sequences stand for … in CUCUCU…GGAGGGAAAAGUUAUCAGGCAUGCACCUGGUAGCUAGUCUUUAAACCAAUAGAUUGCAUCGGUUUAAAAGGCAAGACCGUCAAAUUGCGGGAAAGGGGUCAACAGCCGUUCAGUACCAAGUCUCAGGGGAAACUUUGAGAUGGCCUUGCAAAGGGUAUGGUAAUAAGCUGACGGACAUGGUCCUAACCACGCAGCCAAGUCCUAAGUCAACAGAUCUUCUGUUGAUAUGGAUGCAGUUCACAGACUAAAUGUCGGUCGGGGAAGAUGUAUUCUUCUCAUAAGAUAUAGUCGGACCUCUCCUUAAUGGGAGCUAGCGGAUGAAGUGAUGCAACACUGGAGCCGCUGGGAACUAAUUUGUAUGCGAAAGUAUAUUGAUUAGUUUUGGAGUACUCGUGGUCG
Method in brief: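 Colonies from six replicate transformations of E. coli BL21(DE3) were pooled and amplicon-sequenced on an Illumina HiSeq 2500. The library placed an intron with all eight P1ex-region nucleotides randomised inside the knt kanamycin-resistance gene on pET-22b(+), and cells grew overnight at 37°C or 30°C on LB agar with or without 25 μg/mL kanamycin (plus 100 μg/mL carbenicillin, 50 μM IPTG, 0.2% rhamnose). Fitness is the DiMSum error-weighted combination of wild-type-normalised replicate fold changes, kanamycin versus none.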

Sequence	self-splicing fitness (ln) (30 °C)	self-splicing fitness (ln) (37 °C)
UUGUAGCAAUAUUACGACGC	-2.8 ± 0.44	-0.663 ± 0.36
CCGCAGCAAUAUUACGCAUA	-3.34 ± 0.19	-2.31 ± 0.17
AUUAAGCAAUAUUACGGCUG	-0.405 ± 0.083	-0.233 ± 0.1
CAAUAGCAAUAUUACGUUAG	-1.44 ± 0.057	-0.481 ± 0.074
GGUAAGCAAUAUUACGUCCA	-0.363 ± 0.14	-0.817 ± 0.16
UCUUAGCAAUAUUACGUCUA	-3.59 ± 0.31	-2.19 ± 0.2
ACCAAGCAAUAUUACGUUGC	-2.65 ± 0.086	-0.992 ± 0.075
GUUUAGCAAUAUUACGCCCA	-1.48 ± 0.19	-0.953 ± 0.33
AUACAGCAAUAUUACGAUUC	-2.06 ± 0.1	-0.118 ± 0.096
GCAUAGCAAUAUUACGCUUC		-2.69 ± 0.19
UCGGAGCAAUAUUACGUCCA	-2.06 ± 0.48	-0.639 ± 0.37
AUGAAGCAAUAUUACGACAC	0.0739 ± 0.12	-0.0401 ± 0.14
GUACAGCAAUAUUACGCUGG	-2.55 ± 0.13	-0.491 ± 0.12
UUUCAGCAAUAUUACGUAGA	-1.72 ± 0.076	-0.283 ± 0.092
CGUAAGCAAUAUUACGACUA	-2.29 ± 0.27	-1.96 ± 0.24
GAGAAGCAAUAUUACGGCUC		-2.07 ± 0.21
CCAAAGCAAUAUUACGGAGA	-4.23 ± 0.42	-1.92 ± 0.23
CUUGAGCAAUAUUACGUGCA	-3.2 ± 0.29	-1.94 ± 0.25
CGGCAGCAAUAUUACGCCUC	-3.4 ± 0.27	-1.59 ± 0.25
CUACAGCAAUAUUACGUAUC	-2.78 ± 0.19	-3.07 ± 0.24
GCGCAGCAAUAUUACGUUAC	-2.71 ± 0.14	-1.12 ± 0.14
CGCGAGCAAUAUUACGAGAU	-2.7 ± 0.28	-2.19 ± 0.26
GUUUAGCAAUAUUACGCCUC	0.228 ± 0.22	-0.7 ± 0.23
AUUGAGCAAUAUUACGGUUU	-3.23 ± 0.21	-2.16 ± 0.22

Sequence	self-splicing fitness (ln) (30 °C)	self-splicing fitness (ln) (37 °C)
CAAAAGCAAUAUUACGUCAA	-3.34 ± 0.11	-2.86 ± 0.12
CAUCAGCAAUAUUACGAUCA	-0.959 ± 0.11	-0.294 ± 0.13
CCGAAGCAAUAUUACGAAAU	-4.57 ± 0.29	-1.9 ± 0.2
GCAUAGCAAUAUUACGACCU	-0.833 ± 0.15	-0.375 ± 0.15
UCAGAGCAAUAUUACGGAAG	-3.05 ± 0.26	-3.41 ± 0.37
CUCAAGCAAUAUUACGAUGC	-3.9 ± 0.15	-2.95 ± 0.17
CAAAAGCAAUAUUACGAGAC	-3.62 ± 0.39	-2.36 ± 0.21
AGUGAGCAAUAUUACGUAAA	-3.58 ± 0.22	-1.3 ± 0.18
CAACAGCAAUAUUACGGGCU	-3.65 ± 0.13	-2.66 ± 0.14
CCUUAGCAAUAUUACGCAAU	-3.51 ± 0.23	-1.47 ± 0.23
CGCCAGCAAUAUUACGGGGA	-3.02 ± 0.22	-3.06 ± 0.27
AUAAAGCAAUAUUACGGCCA	0.232 ± 0.11	0.15 ± 0.13
ACGUAGCAAUAUUACGUUUU	-2.63 ± 0.12	-1.15 ± 0.12
ACGCAGCAAUAUUACGUGUU	-4.19 ± 0.1	-2.85 ± 0.14
CUAUAGCAAUAUUACGACGA	-1.82 ± 0.19	-0.725 ± 0.13
UUGAAGCAAUAUUACGCCCG	0.0378 ± 0.14	0.251 ± 0.21
AUACAGCAAUAUUACGCAAG	-2.28 ± 0.12	-1.49 ± 0.13
AGAAAGCAAUAUUACGCAUU	-2.49 ± 0.15	-2.06 ± 0.22
CCCAAGCAAUAUUACGAAUA	-3.15 ± 0.27	-2.68 ± 0.25
AUAUAGCAAUAUUACGGGGU	-2.23 ± 0.18	-2.25 ± 0.29
UAGGAGCAAUAUUACGAACC	-3.08 ± 0.41	
UAACAGCAAUAUUACGCCCU	-1.18 ± 0.08	0.471 ± 0.12
CCAAAGCAAUAUUACGCACA	-3.55 ± 0.34	-1.66 ± 0.32
UCAUAGCAAUAUUACGUGUU	-3.81 ± 0.14	-1.57 ± 0.1
